In paper PMC10307800, “Structure of human CALHM1 reveals key locations for channel regulation and blockade by ruthenium red” (Nature Communications, 2023):
Values joined by “and” are separate entries in the source; they are usually repeats but may differ in a detail not shown here. Identical values can stand only once.

Key:
[1] = target: killifish CALHM1Δct (killifish); experiment: cryo-EM 2D classification; reanalysis of the publicly available dataset EMPIAR #10444
[2] = target: human CALHM1Δct-Ile109Trp (C-terminal Strep-II tag) (human) (UniProt Q8IU99); experiment: cryo-EM structure; single-particle reconstruction in lipid nanodiscs, 20 mM HEPES-NaOH pH 7.5, 200 mM NaCl; with RuR (50 µM RuR, 1 mM EGTA; C8 and C1 maps) and RuR-free (1 mM EDTA)
[3] = target: chicken CALHM1Δct (residues 1-291, C-terminal Strep-II tag) (chicken); experiment: cryo-EM structure; single-particle 3D reconstruction in lipid nanodiscs (soybean polar extract, MSP2N2); chicken: 20 mM Tris pH 8.0, 150 mM NaCl, 1 mM EDTA; human: 20 mM HEPES-NaOH pH 7.5, 200 mM NaCl, 1 mM EDTA
[4] = target: chicken CALHM1Δct (residues 1-291, C-terminal Strep-II tag) (chicken); experiment: cryo-EM 2D classification; 'top' views of 2D classification of the same nanodisc samples
[5] = target: the molecule itself; experiment: cryo-EM structure; single-particle 3D reconstruction in lipid nanodiscs (soybean polar extract, MSP2N2); chicken: 20 mM Tris pH 8.0, 150 mM NaCl, 1 mM EDTA; human: 20 mM HEPES-NaOH pH 7.5, 200 mM NaCl, 1 mM EDTA
[6] = target: the molecule itself; experiment: cryo-EM 2D classification; 'top' views of 2D classification of the same nanodisc samples

Molecule: killifish CALHM1Δct (domain or fragment)
- stoichiometry N [1]: 8 and 9

Molecule: human CALHM1Δct-Ile109Trp (C-terminal Strep-II tag) (from UniProt Q8IU99 1-303) (domain or fragment)
- stoichiometry N [2]: 8

Molecule: chicken CALHM1Δct (residues 1-291, C-terminal Strep-II tag) (domain or fragment)
- stoichiometry N [3]: 8
- stoichiometry N [4]: 8 and 9

B1: human CALHM1Δct (calcium homeostasis modulator 1, residues 1-303, C-terminal Strep-II tag) (domain or fragment, UniProt Q8IU99 1-303, looked up)
chain: MMDKFRMIFQFLQSNQESFMNGICGIMALASAQMYSAFDFNCPCLPGYNAAYSAGILLAPPLVLFLLGLVMNNNVSMLAEEWKRPPGRRAKDPAVLRYMFCSMAQRALIAPVVWVAVTLLDGKCFLCAFCTAVPVSALGNGSLAPGLPAPELARLLARVPCPEIYDGDWLLAREVAVRYLRCISQALGWSFVLLTTLLAFVVRSVRPCFTQAAFLKSKYWSHYIDIERKLFDETCTEHAKAFAKVCIQQFFEAMNHDLELGHTHGTLATAPASAAAPTTPDGAEEEREKLRGITDQGTMNRLL
notes: calcium homeostasis modulator 1 (CALHM1), human, residues 1-303 (C-terminal truncation; residues 303-346 follow the CTH in the whole protein); Octamer in the 3D reconstruction; nonameric particles were also seen in 2D classes; also called hCALHM1Δct; hCALHM1∆ct; source: HEK293S GnTI- cells, baculovirus infection; purified (Strep-Tactin, SEC), reconstituted into lipid nanodiscs (MSP2N2, soybean …)
- stoichiometry N [5]: 8
- stoichiometry N [6]: 9
